In patent publication US20180155451A1 (published 2018):
Residue numbers refer to the chain shown, from its start.

B1: GpH7-A5/GpH7-HA5/GpL16-k0 (antibody, human IgG1, kappa)
heavy 1: not shown
heavy 2: QVQLVQSGAEVKKPGASVTVSCKASGYTFTDYEMHWIRQPPGEGLEWIGAIDPKTGDTAYSESFQDRVTLTADKSTSTAYMELSSLTSEDTAVYYCTRFYSYTYWGQGTLVTVSSASTKGPSVFPLAPSSKSTSGGTAALGCLVKDYFPEPVTVSWNSGALTSGVHTFPAVLQSSGLYSLSSVVTVPSSSLGTQTYICNVNHKPSNTKVDKKVEPKSCDKTHTCPPCPAPEYLGGPSVFLFPPKPKDTLMISRTPEVTCVVVDVSHEDPEVKFNWYVDGVEVHNAKTKPREEQYNSTYRVVSVLTVLHQDWLNGKEYKCKVSNKALRAPIEKTISKAKGQPREPQVYTLPPSRDELTKNQVSLTCLVKGFYPSDIAVEWESNGQPENNYKTTPPVLDSDGSFFLYSKLTVDKSRWQQGNVFSCSVMHEALHNHYTQESLSLSP
light: DIVMTQSPLSLPVTPGEPASISCQASESLVHSNRNTYLHWYLQKPGQSPQLLIYKVSNRFSGVPDRFSGSGSGTDFTLKISRVEAEDVGVYYCSQNTHVPPTFGQGTKVEIERTVAAPSVFIFPPSDEQLKSGTASVVCLLNNFYPREAKVQWKVDNALQSGNSQESVTEQDSKDSTYSLSSTLTLSKADYEKHKVYACEVTHQGLSSPVTKSFNRGEC
notes: Heterodimerized anti-glypican-3 IgG1 variant
B2: GpH7-A48/GpH7-B3-06-09D/GpL16-k0 (antibody, human IgG1, kappa)
heavy 1: B1 heavy 2 with Y232L, D354K, H433R, E437K
heavy 2: not shown
light: B1 light
notes: as for B1
B3: GpH7-A5/GpH7-HA15/GpL16-k0 (antibody, human IgG1, kappa)
heavy 1: not shown
heavy 2: B1 heavy 2 with Y232L, A328L
light: B1 light
notes: as for B1
B4: GpH7-A48/GpH7-B3-01-15Y/GpL16-k0 (antibody, human IgG1, kappa)
heavy 1: B1 heavy 2 with Y232L, D354K, H433R, E437K
heavy 2: not shown
light: B1 light
notes: as for B1
B5: GpH7-A48/GpH7-B3-03-20W/GpL16-k0 (antibody, human IgG1, kappa)
heavy 1: B1 heavy 2 with Y232L, D354K, H433R, E437K
heavy 2: not shown
light: B1 light
notes: as for B1
B6: GpH7-A48/GpH7-B3-22-10E/GpL16-k0 (antibody, human IgG1, kappa)
heavy 1: B1 heavy 2 with Y232L, D354K, H433R, E437K
heavy 2: not shown
light: B1 light
notes: as for B1
B7: GpH7-A48/GpH7-B3-20-08L/GpL16-k0 (antibody, human IgG1, kappa)
heavy 1: B1 heavy 2 with Y232L, D354K, H433R, E437K
heavy 2: not shown
light: B1 light
notes: as for B1
B8: GpH7-A5/GpH7-HA7/GpL16-k0 (antibody, human IgG1, kappa)
heavy 1: not shown
heavy 2: B1 heavy 2 with Y232L, S237D
light: B1 light
notes: as for B1
B9: GpH7-A5/GpH7-HA11/GpL16-k0 (antibody, human IgG1, kappa)
heavy 1: not shown
heavy 2: B1 heavy 2 with Y232L, S296A
light: B1 light
notes: as for B1
B10: GpH7-A5/GpH7-HA18/GpL16-k0 (antibody, human IgG1, kappa)
heavy 1: not shown
heavy 2: B1 heavy 2 with Y232L, I330E
light: B1 light
notes: as for B1
B11: GpH7-A5/GpH7-HA6/GpL16-k0 (antibody, human IgG1, kappa)
heavy 1: not shown
heavy 2: B1 heavy 2 with Y232L, G234W
light: B1 light
notes: as for B1
B12: GpH7-A48/GpH7-B3-15-02A/GpL16-k0 (antibody, human IgG1, kappa)
heavy 1: B1 heavy 2 with Y232L, D354K, H433R, E437K
heavy 2: not shown
light: B1 light
notes: as for B1

The binders below were run against T1, FcγRIIIa extracellular domain with C-terminal His tag (human, UniProt P08637 17-208) (assay: SPR (Biacore), antibody captured on antigen peptide chip, FcγR as analyte).
T1 construct: extracellular domain; also called FcgRIIIa; CD16A
Excerpt: The expression vectors for the respective H chains were combined in a way that each of the alterations L234Y, G236W, S298A, S239D, A330L, and I332E is present in the same H chain as P329R or in the different H chain from P329R, and the expression vector GpL16-k0 for the L chain was combined with them. Antibodies of interest were expressed and prepared according to the method described in Reference Example 1. The prepared antibodies were used to assay the FcγRIIIa-binding activity. The result of assessment using P329R on the direction of FcγRIIIa recognition by L234Y, G236W, S298A, S239D, A330L, and I332E is summarized in Table 12.
Analysis of interaction between objective antibody and the FcγR was carried out using Biacore T100 (GE Healthcare). HBS-EP+ (GE Healthcare) was used as the running buffer, and the measurement temperature was set to 25° C. Chips produced by immobilizing the antigen peptide by the amine coupling method to a Series S Sencor Chip CM5 (GE Healthcare), or alternatively, chips produced by allowing preliminarily biotinylated antigen peptides to interact with and immobilize onto a Series S Sensor Chip SA (certified) (GE Healthcare) were used. Antibodies of interest were captured onto an antigen peptide-immobilized chip, and allowed to interact to each FcγR diluted with running buffer. To regenerate and repeatedly use the chip, the antibodies captured on the chip were washed off by reacting 10 mM glycine-HCl, pH 1.5.

T1 sequence (P08637 17-208): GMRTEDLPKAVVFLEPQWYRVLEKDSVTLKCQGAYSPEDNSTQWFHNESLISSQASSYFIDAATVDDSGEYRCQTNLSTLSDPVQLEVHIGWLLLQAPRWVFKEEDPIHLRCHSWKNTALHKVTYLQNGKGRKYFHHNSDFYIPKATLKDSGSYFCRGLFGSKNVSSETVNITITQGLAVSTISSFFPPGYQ

FcγRIIIa BINDING ACTIVITY (relative) | Binder
60 relative, GpH7-A5/GpH7-B3/GpL16-k0 = 100 | B1
123 relative, GpH7-A5/GpH7-B3/GpL16-k0 = 100 | B2
32 relative, GpH7-A5/GpH7-B3/GpL16-k0 = 100 | B3
11 relative, GpH7-A5/GpH7-B3/GpL16-k0 = 100 | B4
13 relative, GpH7-A5/GpH7-B3/GpL16-k0 = 100 | B5
189 relative, GpH7-A5/GpH7-B3/GpL16-k0 = 100 | B6
60 relative, GpH7-A5/GpH7-B3/GpL16-k0 = 100 | B7
3 relative, GpH7-A5/GpH7-B3/GpL16-k0 = 100 | B8
84 relative, GpH7-A5/GpH7-B3/GpL16-k0 = 100 | B9
35 relative, GpH7-A5/GpH7-B3/GpL16-k0 = 100 | B10
56 relative, GpH7-A5/GpH7-B3/GpL16-k0 = 100 | B11
47 relative, GpH7-A5/GpH7-B3/GpL16-k0 = 100 | B12
